The source of these data is patent US20260266848A1, “COMPOSITIONS AND METHODS FOR DIAGNOSING AND TREATING DYSTONIA” (Duke University, priority 2023, published 2026).

B1: Exoc4 (protein, UniProt O35382 2-975, looked up)
Exocyst complex component 4: AAEAAGGKYRSTVSKSKDPSGLLISVIRTLSTSDDVEDRENEKGRLEEAYEKCDRDLDELIVQHYTELTTAIRTYQSITERITNSRNKIKQVKENLLSCKMLLHCKRDELRKLWIEGIEHKHVLNLLDEIENIKQVPQKLEQCMASKHYLSATDMLVSAVESLEGPLLQVEGLSDLRLELHSKKMNLHLVLIEELHRHLYIKSTSRVVQRNKEKGKMSSHGKDPSPGPLIDVSNIPTPRKFLDASQYSAAGGSSVREMNLQDVKEDLECDPEENSTLFMGILIQGLARLKKIPETVKAIKERLEQELKQIVKRSTTQVADSAYQRGESLTVDNQPRLLLELLELLFDKFNAVATAHSVVLGYLQDSVGTQLTQQEEIKLYDMADVWVKIQDVLQMLLTEYLDMKNTRTASEPSAQLSYASTGREFAAFFAKKKPQRPKNSLFKFESSSHAISMSAYLREQRRELYSRSGELQGGPDDNLIEGGGTKFVCKPGARNITVIFHPLLRFIQEIEHALGLGPAKQCPLREFLTVYIKSIFLNQVLAEINKEIEGVTKTSDPLKILANADTMKVLGVQRPLLQSTIIVEKTVQDLMNLMHDLSAYSDQFLNMVCVKLQEYKDTCSTAYRGIVQSEEKLVISASWAKDDDISRLLKSLPNWTNMAQPKQLRPKREEEEDFIRAAFGKESEVLIGNLGDKLIPPQDILRDVSDLKALANMHESLEWLAGRTKSAFSNLSTSQMLSPAQESHVNMDLPPVSEQIMQTLSELAKTFQDMADRCLLVLHLEVRVHCFHYLIPLAKEGNYAIVANVESMDYDPLVVKLNKDISAMEEAMSASLQQHKFQYIFEGLGHLISCILINGAQYFRRISESGIKKMCRNIFVLQQNLTNITMSREADLDFARQYYEMLYNTADELLNLVVDQGVKYTELEYIHALTLLHRSQTGVGDQTTQNTRLQRLKEIICEQAAIKQATKDKKITTV
B2: Idua (protein, UniProt P35475 28-653, looked up)
Alpha-L-iduronidase: APHLVHVDAARALWPLRRFWRSTGFCPPLPHSQADQYVLSWDQQLNLAYVGAVPHRGIKQVRTHWLLELVTTRGSTGRGLSYNFTHLDGYLDLLRENQLLPGFELMGSASGHFTDFEDKQQVFEWKDLVSSLARRYIGRYGLAHVSKWNFETWNEPDHHDFDNVSMTMQGFLNYYDACSEGLRAASPALRLGGPGDSFHTPPRSPLSWGLLRHCHDGTNFFTGEAGVRLDYISLHRKGARSSISILEQEKVVAQQIRQLFPKFADTPIYNDEADPLVGWSLPQPWRADVTYAAMVVKVIAQHQNLLLANTTSAFPYALLSNDNAFLSYHPHPFAQRTLTARFQVNNTRPPHVQLLRKPVLTAMGLLALLDEEQLWAEVSQAGTVLDSNHTVGVLASAHRPQGPADAWRAAVLIYASDDTRAHPNRSVAVTLRLRGVPPGPGLVYVTRYLDNGLCSPDGEWRRLGRPVFPTAEQFRRMRAAEDPVAAAPRPLPAGGRLTLRPALRLPSLLLVHVCARPEKPPGQVTRLRALPLTQGQLVLVWSDEHVGSKCLWTYEIQFSQDGKAYTPVSRKPSTFNLFVFSPDTGAVSGSYRVRALDYWARPGPFSDPVPYLEVPVPRGPPSPGNP
B3: Lnpep (protein, UniProt Q8C129 1-1025, looked up)
Leucyl-cystinyl aminopeptidase: MESFTNDRLQLPRNMIENSMFEEEPDVVDLAKEPCLHPLEPDEVEYEPRGSRLLVRGLGEHEMDEDEEDYESSAKLLGMSFMNRSSGLRNSAAGYRQSPDGTCSLPSARTLVICVFVIVVAVSVIMVIYLLPRCTFTKEGCHKTNQSAELIQPVATNGKVFPWAQIRLPTAIIPLCYELSLHPNLTSMTFRGSVTISLQALQDTRDIILHSTGHNISRVTFMSAVSSQEKQVEILEYPYHEQIAVVAPEPLLTGHNYTLKIEYSANISNSYYGFYGITYTDKSNEKKYFAATQFEPLAARSAFPCFDEPAFKATFIIKITRNEHHTALSNMPKKSSVPAEEGLIQDEFSESVKMSTYLVAFIVGEMRNLSQDVNGTLVSVYAVPEKIGQVHHALDTTIKLLEFYQTYFEIQYPLKKLDLVAIPDFEAGAMENWGLLTFREETLLYDNATSSVADRKLVTKIIAHELAHQWFGNLVTMQWWNDLWLNEGFATFMEYFSVEKIFKELNSYEDFLDARFKTMRKDSLNSSHPISSSVQSSEQIEEMFDSLSYFKGASLLLMLKSYLSEDVFRHAVILYLHNHSYAAIQSDDLWDSFNEVTDKTLDVKKMMKTWTLQKGFPLVTVQRKGTELLLQQERFFLRMQPESQPSDTSHLWHIPISYVTDGRNYSEYRSVSLLDKKSDVINLTEQVQWVKVNSNMTGYYIVHYAHDDWTALINQLKRNPYVLSDKDRANLINNIFELAGLGKVPLRMAFDLIDYLKNETHTAPITEALFQTNLIYNLLEKLGHMDLSSRLVARVHKLLQNQIQQQTWTDEGTPSMRELRSALLEFACAHSLENCTTMATNLFDSWMASNGTQSLPTDVMVTVFKVGARTEKGWLFLFSMYSSMGSEAEKNKILEALASSEDVHKLYWLMKSSLDGDIIRTQKLSLIIRTVGRHFPGHLLAWDFVKENWNKLVHKFHLGSYTIQSIVAGSTHLFSTKTHLSEVQAFFENQSEATLKLRCVQEALEVIQLNIQWMVRNLKTLSQWL
B4: Serpinf1 (protein, UniProt P97298 20-417, looked up)
Pigment epithelium-derived …: QNVPSSSEGSPVPDSTGEPVEEEDPFFKVPVNKLAAAVSNFGYDLYRLRSSASPTGNVLLSPLSVATALSALSLGAEHRTESVIHRALYYDLITNPDIHSTYKELLASVTAPEKNLKSASRIVFERKLRVKSSFVAPLEKSYGTRPRILTGNPRVDLQEINNWVQAQMKGKIARSTREMPSALSILLLGVAYFKGQWVTKFDSRKTTLQDFHLDEDRTVRVPMMSDPKAILRYGLDSDLNCKIAQLPLTGSMSIIFFLPLTVTQNLTMIEESLTSEFIHDIDRELKTIQAVLTVPKLKLSFEGELTKSLQDMKLQSLFESPDFSKITGKPVKLTQVEHRAAFEWNEEGAGSSPSPGLQPVRLTFPLDYHLNQPFLFVLRDTDTGALLFIGRILDPSST
B5: Slc25a5 (protein, UniProt P51881 1-298, looked up)
ADP/ATP translocase 2: MTDAAVSFAKDFLAGGVAAAISKTAVAPIERVKLLLQVQHASKQITADKQYKGIIDCVVRIPKEQGVLSFWRGNLANVIRYFPTQALNFAFKDKYKQIFLGGVDKRTQFWRYFAGNLASGGAAGATSLCFVYPLDFARTRLAADVGKAGAEREFKGLGDCLVKIYKSDGIKGLYQGFNVSVQGIIIYRAAYFGIYDTAKGMLPDPKNTHIFISWMIAQSVTAVAGLTSYPFDTVRRRMMMQSGRKGTDIMYTGTLDCWRKIARDEGSKAFFKGAWSNVLRGMGGAFVLVLYDEIKKYT
B6: Canx (protein, UniProt P35564 21-591, looked up)
Calnexin: HDGHDDDAIDIEDDLDDVIEEVEDSKSKSDASTPPSPKVTYKAPVPTGEVYFADSFDRGSLSGWILSKAKKDDTDDEIAKYDGKWEVDEMKETKLPGDKGLVLMSRAKHHAISAKLNKPFLFDTKPLIVQYEVNFQNGIECGGAYVKLLSKTAELSLDQFHDKTPYTIMFGPDKCGEDYKLHFIFRHKNPKTGVYEEKHAKRPDADLKTYFTDKKTHLYTLILNPDNSFEILVDQSVVNSGNLLNDMTPPVNPSREIEDPEDRKPEDWDERPKIADPDAVKPDDWDEDAPSKIPDEEATKPEGWLDDEPEYIPDPDAEKPEDWDEDMDGEWEAPQIANPKCESAPGCGVWQRPMIDNPNYKGKWKPPMIDNPNYQGIWKPRKIPNPDFFEDLEPFKMTPFSAIGLELWSMTSDIFFDNFIISGDRRVVDDWANDGWGLKKAADGAAEPGVVLQMLEAAEERPWLWVVYILTVALPVFLVILFCCSGKKQSNAMEYKKTDAPQPDVKDEEGKEEEKNKRDEEEEEEKLEEKQKSDAEEDGVTGSQDEEDSKPKAEEDEILNRSPRNRKPRRE
B7: Wbp2 (protein, UniProt P97765 1-261, looked up)
WW domain-binding protein 2: MALNKNHSEGGGVIVNNTESILMSYDHVELTFNDMKNVPEAFKGTKKGTVYLTPYRVIFLSKGKDAMQSFMMPFYLMKDCEIKQPVFGANFIKGIVKAEAGGGWEGSASYKLTFTAGGAIEFGQRMLQVASQASRGEVPNGAYGYPYMPSGAYVFPPPVANGMYPCPPGYPYPPPPPEFYPGPPMMDGAMGYVQPPPPPYPGPMEPPVSGPSAPATPAAEAKAAEAAASAYYNPGNPHNVYMPTSQPPPPPYYPPEDKKTQ

One experiment relates to DYT-TOR1A MEF EVs. The experiment can be described thus: Quantitative LC-MS/MS proteomics of EVs from drug-treated DYT-TOR1A MEF cultures (ritonavir, salubrinal). In kind it is cell-based, mouse. The arrangement: key to RTV Corrective Direction / RTV Corrective Direction, Grwd1 / RTV Corrective Direction, Srrm2 / RTV Corrective Direction, Rbm17 / RTV Corrective Direction, Dcaf8 / RTV Corrective Direction, Edil3 / RTV Corrective Direction, Timp3 / RTV Corrective Direction, Heatr3 / RTV Corrective Direction, Brd4 / RTV Corrective Direction, P3h4 / RTV Corrective Direction, Pacsin3 / RTV Corrective Direction, Naa50 / RTV Corrective Direction, Lpar6 / RTV Corrective Direction, Ndrg1 / RTV Corrective Direction, Kntc1 / RTV Corrective Direction, Cdk11b / RTV Corrective Direction, Sumo1 / RTV Corrective Direction, Lsm4 / RTV Corrective Direction, Hmga2 / RTV Corrective Direction, Cstf1 / RTV Corrective Direction, Tes / RTV Corrective Direction, Sbno1 / RTV Corrective Direction, Unc119b / RTV Corrective Direction, Cfdp1 / RTV Corrective Direction, Sec61b: YES = protein abundance effect opposite to DYT/WT. The note with it: EV protein abundance, DYT + RTV (ritonavir) vs DYT, direction compared with DYT/WT.
B1: the “RTV Corrective Direction” value is listed as “YES”.

The same experiment, now with this note: EV protein abundance, ritonavir (RTV)-treated DYT vs DYT.
Consider B2, for which the “DYT + RTV/DYT Cohen's d” value is listed as −0.08.

On to B3, for which the “DYT + RTV/DYT Cohen's d” value was −0.39.

Regarding B1, the “DYT + RTV/DYT Cohen's d” value is recorded as 7.70.

In the case of B4, the “DYT + RTV/DYT Cohen's d” value is 1.47.

Turning to B5, the “DYT + RTV/DYT Cohen's d” value was −0.78.

For the molecule B6, the “DYT + RTV/DYT Cohen's d” value is −0.16.

As for B7, the “DYT + RTV/DYT Cohen's d” value is given as −0.89.

A further experiment deals with WT MEF EVs. The experiment in a line: Quantitative LC-MS/MS proteomics of EVs from ISRIB-treated WT MEF cultures. In kind it is cell-based, mouse. The arrangement: key to ISRIB and DYT Parallel Direction / ISRIB and DYT Parallel Direction, Ctdsp1 / ISRIB and DYT Parallel Direction, Pcdh19 / ISRIB and DYT Parallel Direction, Tspan7 / ISRIB and DYT Parallel Direction, Myo1e / ISRIB and DYT Parallel Direction, Plpp3 / ISRIB and DYT Parallel Direction, Sh3bp4 / ISRIB and DYT Parallel Direction, Dnajc7 / ISRIB and DYT Parallel Direction, Drg1 / ISRIB and DYT Parallel Direction, Maea: YES = protein abundance effect similar to DYT/WT. The conditions noted are these: EV protein abundance, ISRIB-treated WT vs WT.
With B2, the “WT + ISRIB/WT Cohen's d” value came to 0.52.

Consider B3, for which the “WT + ISRIB/WT Cohen's d” value is −1.24.

In the case of B1, the “WT + ISRIB/WT Cohen's d” value is recorded as −1.51.

As for B4, the “WT + ISRIB/WT Cohen's d” value was −1.83.

For B5, the “WT + ISRIB/WT Cohen's d” value is on record as −0.54.

For the molecule B6, the “WT + ISRIB/WT Cohen's d” value was determined as 0.64.

Consider B7, for which the “WT + ISRIB/WT Cohen's d” value is given as −1.50.

Still in this experiment, the particulars now being: EV protein abundance, WT + ISRIB vs WT, direction compared with DYT/WT.
Take B3: the “ISRIB and DYT Parallel Direction” value is given as “YES”.

In the case of B1, the “ISRIB and DYT Parallel Direction” value is recorded as “YES”.

On to B5, for which the “ISRIB and DYT Parallel Direction” value is “YES”.

On to B7, for which the “ISRIB and DYT Parallel Direction” value is “YES”.
